This is an account of results in patent US20260152569A1, “ANTI-GPC1 MONOCLONAL ANTIBODY, THERAPEUTIC AND DIAGNOSTIC USES THEREOF” (CENTRO DI RIFERIMENTO ONCOLOGICO DI AVIANO, priority 2022, published 2026).

“And” between values parts separate entries of the source, which are not always exact repeats. Identical values can stand only once.

In series [1] the test system is BXPC3 tumor. In words: Therapeutic effect of doxorubicin-loaded chitosan nanobubbles in BXPC3 mouse model.
Procedure: The amount of doxorubicin loaded nanobubbles used for the treatments in each group corresponded to 2 mg/kg per week of doxorubicin for each different treatment modality. Data are represented as mean±SD.
P-value was calculated using the log-rank test. Colored areas correspond to 95% confidence interval.
The survival data from the four treatments were evaluated by Kaplan-Meier curves to compare each treatment with one at time of the others. […] P-value was calculated using the log-rank test. Colored areas correspond to 95% confidence interval.
The study started when the subcutaneous BXPC3-tumor reached a volume of 75 mm^3. The humanitarian endpoints that had caused the euthanasia of mice were: one tumor dimension greater than 12 mm or ulceration of the tumor. Four groups of mice were tested: a first group of animals treated with doxo-CS NBs-C (n=6); a second group of animals treated with doxo-CS NBs (n=6); a third group of control animals treated with doxorubicin (doxo 2 mg/kg) in order to treat mice at the same concentration (2 mg/kg for a week) (n=10); a fourth group of control animals treated with PBS solution (n=8).
Mice survival was evaluated using Kaplan-Meier curves and the p-value was calculate using log rank test.
Series [2] deals with GPC1 protein. In words: Flow cytometry analysis of GPC1 expression in cell lines. The conditions noted are these: JURKAT cell line (complete absence of GPC1 protein). In kind it is cell-based, human. The procedure:
(§1) Remarkably, the same expression pattern as flow cytometry analysis was obtained by immunofluorescence analysis with anti-GPC1 C. […] Thus, the results of immunofluorescence analysis confirmed the ability of anti-GPC1 C to detect the GPC1 protein that was observed when flow cytometry was performed (FIGS. 1A, 1B). • c) Anti-GPC1 C was also shown to specifically recognize GPC1 protein in GBM tissue samples from surgical resection.

The test system of series [3] is GPC1 protein. In words: Immunofluorescence of GPC1 protein in cell lines. In kind it is cell-based, human. The conditions noted are these: JURKAT cells. As to the method:
as §1

In series [4] the target is T1, GPC1 protein (Homo sapiens, UniProt P35052).
T1 construct: in tumor masses of xenografts obtained by subcutaneous injection of BXPC3 into athymic nude mice; from tissue; host or cells: BXPC3 xenograft tumour masses from athymic nude mice; organs of the same mice as negative control
T1 sequence (P35052 24-530 limits assumed): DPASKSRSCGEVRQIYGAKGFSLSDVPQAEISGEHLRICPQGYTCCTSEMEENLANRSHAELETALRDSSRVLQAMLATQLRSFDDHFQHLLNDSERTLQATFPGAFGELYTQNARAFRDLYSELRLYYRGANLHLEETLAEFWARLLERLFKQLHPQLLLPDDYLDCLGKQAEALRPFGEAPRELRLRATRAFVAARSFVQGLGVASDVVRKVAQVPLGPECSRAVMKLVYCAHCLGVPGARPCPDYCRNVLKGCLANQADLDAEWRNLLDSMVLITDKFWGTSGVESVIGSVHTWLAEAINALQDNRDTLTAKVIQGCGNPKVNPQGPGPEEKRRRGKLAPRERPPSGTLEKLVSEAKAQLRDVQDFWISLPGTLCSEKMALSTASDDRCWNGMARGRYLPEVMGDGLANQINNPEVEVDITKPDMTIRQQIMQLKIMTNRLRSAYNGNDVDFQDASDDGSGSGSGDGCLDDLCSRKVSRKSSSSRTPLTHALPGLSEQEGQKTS
In words: Immunofluorescence of GPC1 protein in BXPC3 xenograft tumor masses and mouse organs. Also noted: species or system athymic nude mice. The conditions noted are these: tumor masses of BXPC3 xenografts. As to the method:
(§2) Scale bar corresponds to 25 μm.
as §1

The subject of series [5] is GPC1 protein. The description is as above. Details: species or system athymic nude mice. The conditions noted are these: organs of the xenograft mice. As to the method:
as §2, §1

The test system of series [6] is BXPC3 tumor mass. In words: In vivo and ex vivo biodistribution of Cy5.5-conjugated anti-GPC1 C in BXPC3 xenograft mice. Also noted: species or system athymic nude mice. The procedure: Whole-body scan of a representative mouse in prone and supine position is shown. […] Green circles enclose the tumor mass.
Data are reported as average efficiency mean±SD (n=4). P-value was calculated using the t-test, for the t-test, anti-GPC1 C was used as reference for each time point. ns: ≥0.05; *: 0.05<p≤0.01; **: 0.01<p≤0.001.
Data are reported as mean±SD (n=4). P-value was calculated using the t-test. ns: ≥0.05.
Blue represents nuclei and green represents IgMs. Scale bar corresponds to 25 μm.
Specifically, in vivo time course experiments with signal detection from 0 to 96 hours and signal evaluation every 24 hours were performed to evaluate the ability to target tumor mass and the overall biodistribution of anti-GPC1 C when injected into the mouse tail vein after conjugation with Cy5.5 for detection using the VIVOVISION IVIS®Lumina (Xenogen) in vivo imaging device (FIGS. 5A, B, C, D, E, F, G).

The subject of series [7] is BXPC3 tumor.
Procedure: Experimental endpoint was set up at day 50. Untreated mice (orange line) were used as controls. Data were visualized using Kaplan-Meier analysis, p-value of 0.00016 was calculated using the log rank test.
Data are represented as mean±standard error (SE).
The treatment procedure started when the tumor reached a volume of 75 mm^3, and when possible, it was stopped at day 42. For mice reaching the day 42, the final experimental endpoint was set up at day 50 from the beginning of the treatment procedure.
Series [8] addresses T2, GPC1 protein (Homo sapiens, UniProt P35052).
T2 sequence (P35052 24-530): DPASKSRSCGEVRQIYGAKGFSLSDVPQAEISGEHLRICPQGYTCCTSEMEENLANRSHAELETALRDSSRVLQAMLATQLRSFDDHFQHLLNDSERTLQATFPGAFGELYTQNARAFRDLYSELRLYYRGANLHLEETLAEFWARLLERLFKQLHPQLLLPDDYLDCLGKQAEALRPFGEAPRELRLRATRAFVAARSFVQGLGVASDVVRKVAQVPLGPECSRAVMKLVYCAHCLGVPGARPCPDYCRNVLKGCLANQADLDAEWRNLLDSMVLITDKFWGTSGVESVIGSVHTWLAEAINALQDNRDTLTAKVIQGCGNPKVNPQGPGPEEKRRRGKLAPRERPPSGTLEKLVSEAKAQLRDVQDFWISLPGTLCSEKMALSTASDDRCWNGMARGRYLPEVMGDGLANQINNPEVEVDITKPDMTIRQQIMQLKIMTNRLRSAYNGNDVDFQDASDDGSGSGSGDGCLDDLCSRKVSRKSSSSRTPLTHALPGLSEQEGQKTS
Kind of series: Immunofluorescence of GPC1 protein in cell lines. It counts as cell-based. Details: endogenous in cells; host or cells: BXPC3, U87MG, T98G (GPC1-expressing). The conditions noted are these: BXPC3, U87MG and T98G cell lines. The procedure: as §1

In series [9] the target is T2, GPC1 protein. In words: Flow cytometry analysis of GPC1 expression in cell lines. It counts as cell-based. The conditions noted are these: GPC1-expressing BXPC3, U87MG and T98G cell lines. Details: endogenous in cells; host or cells: BXPC3, U87MG, T98G (GPC1-expressing); JURKAT (no GPC1). The procedure:
as §1
(In general: Flow cytometry measures light scatter and fluorescence of single cells or particles in a stream.)

The subject of series [10] is BXPC3 tumor mass. In words: Complement-dependent cytotoxicity in BXPC3 tumor mass (hematoxylin-eosin, immunofluorescence). The conditions noted are these: compared with murine IgM pool or PBS.
Procedure: The nuclei are stained in purple, the cytoplasm is stained in pink.
Blue represents nuclei and green represents the signal related to the immunological cell biomarkers (CD14 and CD56, respectively).
Blue represents nuclei and green represents the signal related to the complement system effectors (C1q, C3, C9, respectively).
To better characterize the source of cell death, the presence of complement system effectors, but also the recruitment of macrophages, and NK cells was also analyzed by immunofluorescence analysis (FIGS. 7A, 7B).
In particular, the involvement of the complement system was investigated, by analyzing C1q, C3 (C3b, iC3b, C3c), and C9.
Series [11] addresses T2, GPC1 protein. In words: Immunofluorescence of GPC1 protein in GBM, liver and lung tissue. Also noted: specifically recognize GPC1 protein in GBM tissue samples from surgical resection; from tissue; host or cells: glioblastoma (GBM) tissue from surgical resection; healthy liver and lung tissue. As to the method:
Scale bar corresponds to 50 μm.
as §1

[12] abbreviates: i.v., Cy5.5 conjugate, in vivo imaging.
Setting [13] is: 7 mice, i.p. 38 micrograms twice a week.

Turning to `COc1cccc2c1C(=O)c1c(O)c3c(c(O)c1C2=O)C[C@@](O)(C(=O)CO)C[C@@H]3O[C@H]1C[C@H](N)[C@H](O)[C@H](C)O1` [Doxo, doxorubicin], in [1] (2 mg/kg doxorubicin per week), the “Mean survival ± S.D.” value worked out at 13.9 ± 1.59 days. In series [1] (reference treatment: Untreated), this molecule had an HR of 0.19.

B1: anti-GPC1 C: anti-GPC1 IgM monoclonal antibody of the invention, heavy chain variable region SEQ ID NO: 13, light chain variable region SEQ ID NO: 14 (antibody, listed as Mus musculus, V domains shown)
VH: QVQLQQSDAELVKPGASVKISCKASGYTFTDHAIHWVKQKPEQGLEWIGYISPGNGDIKYNEKFKGKATLTADKSSSTAYMQLNSLTSEDSAVYFCKRYAYWGQGTLVTVSA
VL: DVLMTQTPLSLPVSLGDQASISCRSSQSIVHSNGNTYLEWYLQKPGQSPKLLIYKVSNRFSGVPDRFSGSGSGTDFTLKISRVEAEDLGVYYCFQGSHVPWTFGGGTKLEIKP
modifications: IgM constant regions
Take B1: the “GPC1 protein signal by flow cytometry” value in [2] is listed as “no signals corresponding to the presence of the GPC1 protein”. In addition, the “GPC1 protein signal by immunofluorescence” value is “no signal was observed” in [3]; “no signals were obtained” in series [5]; “a signal corresponding to the GPC1 protein was observed” in series [8]; “a specific signal was observed” in series [11] (GBM tissue samples from surgical resection); “no signal corresponding to GPC1 protein was detected” in series [11] (healthy tissues (liver and lung)). Also, in series [4], the “GPC1 protein recognition by immunofluorescence” value is recorded as “specifically recognize the GPC1 protein”. Further, the “ex vivo accumulation in the tumor mass compared to the IgM pool” value in series [6] (96 hours after administration, IVIS Lumina) was “higher accumulation”. In series [6] (96 hours after injection), the “ex vivo immunofluorescence detection in the BXPC3 tumor mass” value was “still detected”. Also, the “time remaining in the tumor” value in [6] (ex vivo immunofluorescence) is “at least 96 hours”. The “peak of accumulation on the tumor mass” value in [6] (i.v., Cy5.5 conjugate, BXPC3 xenograft, imaging every 24 h from 0 to 96 h) worked out at 72 h. Also, in [6] (setting [12]), the “signal in the kidneys and liver” value is on record as “A clear signal”. Further, in series [6] (setting [12]), the “tumor mass signal at 96 hours” value is reported as “maintained up to 96 hours”. For the same molecule, the “% survival at day 50” value in series [7] (setting [13]) came out at 57.1%. Moreover, in series [7] (setting [13]), the “Mean day of euthanasia/sacrifice” value is given as 42.7. Besides, in series [7] (individual mouse, i.p. 38 micrograms twice a week until day 42, experimental endpoint day 50), the “Day of end point” value was 28 and 29 and 42 and 50 (4×). In addition, in series [7] (observed in one animal), the “complete remission of the tumor mass” value is listed as “complete remission”. The “survival time intervals versus PBS-treated mice” value in series [7] (p=0.00016, log-rank test) is on record as “significantly longer”. Moreover, in series [7] (treated group), the “toxicity (weight loss, diarrhea, vomiting, convulsions, dehydration, tachypnea, dyspnea, motionless)” value is “no evidence of toxicity”. Moreover, the “GPC1 protein recognition by flow cytometry” value in series [9] is “specifically recognize the GPC1 protein”. Moreover, in series [10] (96 hours), the “tumor cell death by hematoxylin-eosin staining” value is “clear indicator of cell death”. Moreover, in series [10] (immunofluorescence), the “complement system deposition (C1q, C3, C9), macrophage and NK cell recruitment in tumors” value was “high degree of complement system deposition (C1q, C3, C9), macrophage and NK cell recruitment”.
